Laboratory results reported in patent US12404345B2, “Humanized antibodies against iRHOM2” (SCIRHOM GMBH, priority 2021, dated 2025).
Residue numbers refer to the chain shown, from its start.

T1: human iRhom2 (Homo sapiens, UniProt Q6PJF5)
T1 construct: MEF-DKO-hiR2-FL-WT-T7 cells stably expressing human iRhom2 full length wild type; expressed in transfected cells; host or cells: immortalized iRhom1/2-/- double knockout mouse embryonic fibroblasts, pMSCV retroviral infection
T1 sequence (Q6PJF5 1-856): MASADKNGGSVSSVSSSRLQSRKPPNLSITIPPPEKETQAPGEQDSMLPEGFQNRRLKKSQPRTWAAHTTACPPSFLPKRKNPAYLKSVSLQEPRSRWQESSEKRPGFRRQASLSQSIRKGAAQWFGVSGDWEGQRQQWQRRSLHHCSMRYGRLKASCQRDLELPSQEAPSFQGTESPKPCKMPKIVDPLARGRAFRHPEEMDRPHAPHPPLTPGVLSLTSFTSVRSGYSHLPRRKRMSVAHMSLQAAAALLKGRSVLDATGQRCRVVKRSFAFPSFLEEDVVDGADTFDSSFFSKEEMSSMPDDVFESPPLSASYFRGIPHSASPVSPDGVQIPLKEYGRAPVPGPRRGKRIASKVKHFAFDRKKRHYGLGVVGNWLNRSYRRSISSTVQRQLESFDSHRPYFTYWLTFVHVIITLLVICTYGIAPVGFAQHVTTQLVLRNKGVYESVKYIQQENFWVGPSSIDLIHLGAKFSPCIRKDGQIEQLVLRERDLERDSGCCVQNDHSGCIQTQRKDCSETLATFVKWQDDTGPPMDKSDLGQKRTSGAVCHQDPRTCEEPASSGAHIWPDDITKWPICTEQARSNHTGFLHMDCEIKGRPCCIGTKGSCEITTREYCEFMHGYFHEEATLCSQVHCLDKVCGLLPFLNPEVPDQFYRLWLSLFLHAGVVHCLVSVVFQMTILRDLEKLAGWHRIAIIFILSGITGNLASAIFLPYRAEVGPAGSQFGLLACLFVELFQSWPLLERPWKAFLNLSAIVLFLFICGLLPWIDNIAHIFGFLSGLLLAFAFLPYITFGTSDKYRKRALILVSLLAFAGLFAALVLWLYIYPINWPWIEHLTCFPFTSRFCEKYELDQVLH

B1: 16-B-03: humanized antibody binding human iRhom2; HCVD SEQ ID NO 1, LCVD SEQ ID NO 5 (antibody, V domains shown)
VH: QVTLRESGPALVKPTQTLTLTCTFSGFSLSTFALGVGWIRQPPGKALEWLAHIWWDDDKYYNPALKSRLTISKDTSKNQVVLTITNMDPVDTATYYCARITTYYYGMDYWGQGTLVTVSS
VL: EIVMTQSPDFQSVTPKEKVTITCRASQSIGNHLHWYQQKPDASPKLLIKYASQSISGVPSRFSGSGSGTDFTLTINSLEAEDAATYFCQQSYQWPLTFGQGTKLEIK
modifications: antibody sequences
B2: 16-B-07: humanized antibody binding human iRhom2; HCVD SEQ ID NO 17, LCVD SEQ ID NO 21 (antibody, V domains shown)
VH: B1 VH with D57E
VL: B1 VL
modifications: antibody sequences
B3: 16-B-05: humanized antibody binding human iRhom2; HCVD SEQ ID NO 9, LCVD SEQ ID NO 13 (antibody, V domains shown)
VH: B1 VH with D57E
VL: B1 VL with Q93N
modifications: antibody sequences
B4: 23-B-04: humanized antibody binding human iRhom2; HCVD SEQ ID NO 25, LCVD SEQ ID NO 29 (antibody, V domains shown)
VH: QVTLRESGPALVKPTQTLTLTCTFSGFSLSTFGMGVGWIRQPPGKALEWLAHIWWDDEKYYNSALKSRLTISKDTSKNQVVLTITNMDPVDTATYYCARISNYGSNYWYFNVWGQGTLVTVSS
VL: AIQLTQSPSSLSASVGDRVTITCRASSSVSYMYWYQQKPGKAPKVLIYDTSNLASGVPSRFSGSGSGTDYTLTISSLQPEDFATYYCQQWNAYPLTFGQGTKLEIK
modifications: antibody sequences
B5: 42-B-04: humanized antibody binding human iRhom2; HCVD SEQ ID NO 41, LCVD SEQ ID NO 45 (antibody, V domains shown)
VH: B4 VH with M34R, S101Q, N111D
VL: B4 VL with S28R, V29I, Y33F
modifications: antibody sequences
B6: 42-B-02: humanized antibody binding human iRhom2; HCVD SEQ ID NO 33, LCVD SEQ ID NO 37 (antibody, V domains shown)
VH: B4 VH with M34R, S101Q, N111D
VL: B4 VL with S28R, V29I, Y33F, A92S
modifications: antibody sequences

molecular target: T1, human iRhom2; assay: Affinity determination by indirect FACS scatchard analysis on L929-2041-hiR2-FL-WT-T7 cells; assay type: binding; conditions: 22 two-fold dilutions starting at 160 μg/ml, on ice 1 hour
Description: In this study, affinity measurements of the humanized antibodies 16-B-03, 16-B-05, 16-B-07, 23-B-04, 42-B-02 and 42-B-04 of the invention were performed by indirect FACS scatchard analysis on […] cells, a murine cell line expressing human iRhom2.
The resulting L929 mouse iRhom2 knock-out cell line was afterwards infected with different human iRhom2 constructs to obtain cell line derivatives, stably expressing different human iRhom2 proteins, that allow for binding analyses to different iRhom2 variants in the same genetic background.
In brief, mRhbdf2.3 IVT gRNA ([…]) was synthesized at Thermo Fisher Scientific GeneArt GmbH, Regensburg, Germany. One day post seeding in 24 well plates, L929 parental cells were transfected according to GeneArt CRISPR Nuclease mRNA user guide (Thermo Fisher Scientific, USA) with the gRNA/GeneArt Platinium Cas9 Nucelase (Thermo Fisher Scientific, USA) mix using Lipofectamine CRISPRMAX Transfection Reagent (Thermo Fisher Scientific, USA). 3 days post transfection, cells were lysed and DNA was extracted for amplification of specific PCR products using the mRhbdf2.3 fwd ([…])/mRhbdf2.3 rev ([…]) 5primer pair (Thermo Fisher Scientific, USA). […] Cleavage assay PCR products were also analyzed on Invitrogen 2% E-Gel Size Select agarose gels. Two rounds of subsequent sub cloning of the identified polyclonal L929 population using limited dilution technique were performed, using the Cleavage Detection Kit for identification of positive sub clones. Thereby, the most promising positive sub clone identified in the first round, named 1029, was further sub cloned in the second round to obtain the final clone, named 2041. The monoclonal cell population derived from this sub clone is named L929-2041 and was used for subsequent infection (according to the procedure described in Example 3) with the human iRhom2 construct hiR2-FL-WT-T7 for the generation of the cell lines L929-2041-hiR2-FL-WT-T7.
In brief, L929-2041-hiR2-FL-T7 were harvested with 10 mM EDTA in PBS, washed and resuspended in FACS buffer (PBS, 3% FBS, 0.05% sodium azide), and seeded in Nunc U-bottom 96-well plates (Thermo Fisher Scientific, USA) at approximately 3×10^5 cells per well. In order to pellet cells and remove supernatants, the plates were centrifuged at 1,500 rpm and 4° C. for 3 minutes. For primary staining, cells were resuspended in 100 μl per well of either FACS buffer alone (controls) or serial two-fold dilutions (in total 22 concentrations) of the humanized antibodies 16-B-03, 16-B-05, 16-B-07, 23-B-04, 42-B-02 and 42-B-04 of the invention in FACS buffer starting at 160 μg/ml and incubated on ice for 1 hour. Afterwards, plates were centrifuged at 1,500 rpm and 4° C. for 3 minutes and washed twice with 200 μl per well of FACS buffer. For secondary staining, cells were spun down and resuspended in 100 μl per well of PE-conjugated goat anti-human IgG F(ab′)2 detection fragment (Dianova, Germany) diluted 1:100 in FACS buffer. Protected from light, the cell suspensions were incubated on ice for 1 hour. Plates were then centrifuged at 1,500 rpm and 4° C. for 3 minutes and washed three times with 200 μl per well of FACS buffer. Finally, cells were resuspended in 150 μl per well of FACS buffer and analyzed using a BD Accuri™ C6 Plus flow cytometer (Becton Dickinson, Germany). Applying Prism8 software (GraphPad Software, USA), the respective KD value for each of the antibodies of the invention were calculated.

KD values for binding to L929-2041-hiR2-FL-T7 cells, subnanomolar to low nanomolar range:
B1, B2, B3, B4, B5, B6
